Laboratory results as given in patent publication US9035028B2, “Temperature sensitive conjugate compositions” (Emory University, priority 2010, dated 2015).
Where a SMILES comes first, the peptide text is derived from it. Bridges are numbered along the chain shown (N, C = ends). [ ]: non-standard residue; d: D form. hArg = N=C(N)NCCCC[C@H](N)C(=O)O; Mpa = O=C(O)CCS

Legend:
[1] = target: T1, αv/β3 integrins on vascular cells (Homo sapiens, UniProt P05106+P06756); details: cited from earlier work
T1 construct: host or cells: vascular cells (not specified)
T1 sequence (P06756 31-889 limits assumed): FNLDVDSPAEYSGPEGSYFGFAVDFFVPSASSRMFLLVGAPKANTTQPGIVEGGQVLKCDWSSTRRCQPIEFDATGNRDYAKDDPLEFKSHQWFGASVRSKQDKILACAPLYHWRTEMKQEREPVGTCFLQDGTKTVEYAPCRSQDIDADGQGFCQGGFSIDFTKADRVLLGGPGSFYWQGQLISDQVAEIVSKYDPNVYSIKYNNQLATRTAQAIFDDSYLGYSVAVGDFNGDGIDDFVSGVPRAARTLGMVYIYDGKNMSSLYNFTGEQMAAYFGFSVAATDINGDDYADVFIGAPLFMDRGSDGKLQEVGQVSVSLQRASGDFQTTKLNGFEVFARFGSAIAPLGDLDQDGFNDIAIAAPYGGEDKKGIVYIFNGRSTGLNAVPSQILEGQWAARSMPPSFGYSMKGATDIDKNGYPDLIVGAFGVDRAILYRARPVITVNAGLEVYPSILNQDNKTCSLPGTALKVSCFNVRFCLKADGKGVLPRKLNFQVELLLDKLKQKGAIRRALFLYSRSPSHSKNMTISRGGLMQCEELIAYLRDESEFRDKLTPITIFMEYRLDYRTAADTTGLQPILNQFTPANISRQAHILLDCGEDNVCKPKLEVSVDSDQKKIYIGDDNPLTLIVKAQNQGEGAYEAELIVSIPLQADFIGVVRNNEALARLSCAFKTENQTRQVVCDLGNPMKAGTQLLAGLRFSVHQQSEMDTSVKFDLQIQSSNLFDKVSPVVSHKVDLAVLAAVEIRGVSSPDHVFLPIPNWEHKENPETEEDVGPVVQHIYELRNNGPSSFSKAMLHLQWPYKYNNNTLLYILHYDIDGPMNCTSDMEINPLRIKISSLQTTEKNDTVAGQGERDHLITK
T1 sequence (P06756 891-1048 partner limits assumed): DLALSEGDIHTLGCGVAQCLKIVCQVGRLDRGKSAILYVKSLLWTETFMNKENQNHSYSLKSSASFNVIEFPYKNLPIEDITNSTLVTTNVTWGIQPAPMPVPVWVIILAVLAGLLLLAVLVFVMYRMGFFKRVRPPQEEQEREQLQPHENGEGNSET
T1 sequence (P05106 27-788): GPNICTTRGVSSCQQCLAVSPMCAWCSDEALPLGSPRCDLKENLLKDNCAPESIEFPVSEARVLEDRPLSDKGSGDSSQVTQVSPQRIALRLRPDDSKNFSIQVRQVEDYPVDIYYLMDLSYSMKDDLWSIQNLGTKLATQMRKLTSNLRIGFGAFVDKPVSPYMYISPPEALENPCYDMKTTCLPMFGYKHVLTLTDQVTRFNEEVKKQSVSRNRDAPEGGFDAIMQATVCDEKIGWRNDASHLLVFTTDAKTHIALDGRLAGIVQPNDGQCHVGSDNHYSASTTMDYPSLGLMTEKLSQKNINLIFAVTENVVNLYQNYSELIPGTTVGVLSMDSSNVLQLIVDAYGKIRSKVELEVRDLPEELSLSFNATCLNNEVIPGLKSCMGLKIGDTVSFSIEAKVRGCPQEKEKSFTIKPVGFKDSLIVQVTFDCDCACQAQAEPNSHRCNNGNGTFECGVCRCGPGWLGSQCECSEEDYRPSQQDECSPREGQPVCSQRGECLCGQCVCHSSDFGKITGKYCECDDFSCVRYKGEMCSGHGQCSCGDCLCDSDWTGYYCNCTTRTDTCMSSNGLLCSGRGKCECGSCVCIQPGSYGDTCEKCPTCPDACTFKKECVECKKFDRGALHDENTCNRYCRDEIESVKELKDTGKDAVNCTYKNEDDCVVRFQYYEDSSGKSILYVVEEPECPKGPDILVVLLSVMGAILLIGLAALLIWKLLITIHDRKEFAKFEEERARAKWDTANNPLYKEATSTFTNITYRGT

[2] = system: activated human platelets; experiment: Microscopic analysis of platelet aggregates; type: cell-based; details: both temperatures (22° C. and 37° C.)
Experimental: For the microscopic analysis of platelet aggregates at different temperatures, non-diluted human PRP was placed onto a glass slide and ADP was added to a final concentration of 20 μM, in the presence and absence of EMP-scFv (50 μg/mL). Abciximab was used as a positive control at a concentration of 10 μg/mL. The experiments were conducted at 22° C. and 37° C. Phase contrast microscopy images were taken using an Olympus CKX41 microscope.

[3] = target: T2, GPIIb/IIIa (integrin alphaIIb beta3) on human platelets (human, UniProt P08514 32-1039; P05106 27-788); experiment: flow cytometry, resting and ADP-activated human platelets, 22° C., 32° C. and 37° C.
T2 construct: whole, on cells; also called GPIIb/IIIa receptor; glycoprotein IIb/IIIa

[4] = Circular dichroism (CD) spectra and thermal transition profile; type: physicochemical
Experimental: The mathematical fitting of the CD data allowed the determination of the transition temperature (Tt) resulting from conformational change of EMP as the temperature is increased. The mathematical fitting of the CD data to the van't Hoff equation allowed the determination of the transition temperature (Tt) resulting from conformational change of EMP and EMP-scFv as the temperature is increased.
Circular dichroism (CD) spectra were recorded on a Jasco J-810 spectropolarimeter equipped with a PFD-425S Peltier temperature control unit in 0.1 cm sealed quartz cells at concentrations of 7.5 μM (EMP), 8.4 μM (scFv) and 4.1 μM (EMP-scFv) in 50 mM sodium phosphate buffer, pH 7.4. Temperature/wavelength CD-scans were performed within the temperature range from 5° C. to 35° C. with equilibration for 10 min at each temperature. Spectra were obtained from 260 to 190 nm at a resolution of 0.5 nm and at a scanning speed of 50 nm/min. The CD curves represented the average of five measurements and were smoothed using the means-movement method on the interval analysis of the spectral manager program. CD data are reported as mean residue ellipticity ([θ], deg cm^2 dmol^−1). Thermal transition curves were plotted by the mean residue ellipticity as a function of temperature for the disappearance of the random coil and the appearance of the β-turn structure.

[5] = target: T3, GPIIb/IIIa on human platelets (Homo sapiens, UniProt P05106+P08514); experiment: Flow cytometry: binding to human platelets; details: regardless of the temperature
T3 construct: endogenous in cells
Experimental: Human blood was collected by venipuncture with a 21-gauge butterfly needle from healthy volunteers and anticoagulated with citric acid. Platelet-rich plasma (PRP) was obtained by centrifugation (GS-6R centrifuge, Beckman Coulter) at 100×g at room temperature for 10 min.
Human PRP was diluted 1/50 in modified Tyrode's buffer containing 2 mM MgCl2 and 2 mM CaCl2. Platelets were either activated by addition of 20 μM ADP, or non activated, followed by the incubation with 15 and 50 μg/mL EMP-scFv fusion protein or EMP at 22° C., 32° C. and at 37° C. for 15 min. Mouse platelets were either pre-activated for 10 min by addition of 0.1 U/mL thrombin (Enzyme Research Laboratories), or non activated, before the incubation with 15 and 50 μg/mL of EMP-scFv fusion protein at 22° C., 32° C. or 37° C. for 15 min. In both, human and mouse samples, EMP-scFv was detected via 15 min in-dark incubation with secondary antibody (Penta-His Alexa Fluor 488, Qiagen) directed against the His(6)-tag of the single-chain antibody.
In re-warming experiments, activated and non-activated diluted human PRP was incubated with 15 and 50 μg/mL of EMP-scFv for 15 minutes at 22° C., followed by a 15-min in dark incubation with secondary Penta-His Alexa Fluor 488 antibody. Half of the reaction was then fixed with 1× Cell FIX, while the other half was incubated at 37° C. for either 15 or 30 minutes, before being fixed and measured in FACS.

GPIIb/IIIa = GPIIb/IIIa (Homo sapiens, UniProt P05106+P08514); experiment: Specificity of scFv (studies in applicant's laboratory); type: binding
[6] = in contrast to conformation unspecific GPIIb/IIIa inhibitors; cited from earlier work

N=C(N)NCCCC[C@@H]1NC(=O)CCSSC[C@@H](C(N)=O)NC(=O)[C@@H]2CCCN2C(=O)[C@H](Cc2c[nH]c3ccccc23)NC(=O)[C@H](CC(=O)O)NC(=O)CNC1=O [eptifibatide] ([Mpa][hArg]GDWPC-NH2; disulfide 1-7)
ligand binding to αv/β3 integrins on vascular cells [1]: antagonize ligand binding

abciximab [reference compound]
aggregation of activated human platelets (microscopy) [2]: abolishes aggregation
ligand binding to αv/β3 integrins on vascular cells [1]: antagonize ligand binding

B1: EMP alone (elastin-mimetic polypeptide without scFv) (other)
chain: MAVPAVGIPAVGIPAVGIPAVGIPAVGIPAVGIPAVGIPAVGIPAVGIPAVGIPAVGIPAVGIPAVGIPAVGIPAVGIPAVGIPAVGIPAVGIPAVGIPAVGIPAVGIPAVGIPAVGIPAVGIPAVGIPAVGIPAVGIPAVGIPAVGIPAVGIPAVGIPAVGIPAVGIPAVGIPAVGIPAVGIPAVGIPAVGIPAVGIPAVGIPAVGIPAVGIPAVGIPAVGIPAVGIPAVGIPAVGIPAVGIPAVGIPAVGIPAVGIPAVGIPAVGIPAVGIPAVGIPAVGIPAVGIPAVGIPAVGIPAVGIPAVGIPAVGIPAVGIPAVGIPAVGIPAVGIPAVGIPAVGIPAVGIPAVGIPAVGIPAVGIPAVGIPAVGIPAVGIPAVGIPAVGIPAVGIPAVGIPAVGIP
binding result [3]: no binding (tested: 15 and 50 µg/mL)

B2: EMP: elastin mimetic polypeptide, sixteen repeats of monomer (IPAVG)5, SEQ ID NO: 11, approximately 35 kDa (protein)
chain: B1 chain
transition temperature (Tt) ([4]; CD data at 198 and 220 nm, van't Hoff fit): approximately 26 °C
binding to resting or activated platelets [5]: did not bind

B3: scFv: activation-specific GPIIb/IIIa-blocking single-chain antibody, SEQ ID NO: 13 (protein)
scFv: MAEVQLVESGGGLVQPGGSLRLSCAASGFMFSRYAMSWVRQAPGKGPEWVSGISGSGGSTYYADSVKGRFTVSRDNSKNTLYLQMNSLRAEDTAVYYCARIFTHRSRGDVPDQTSFDYWGQGTLVTVSSGSASAPKLEEGEFSEARVSSELTQDPAVSVALGQTVRITCQGDSLRNFYASWYQQKPGQAPTLVIYGLSKRPSGIPDRFSASSSGNTASLTITGAQAEDEADYYCLLYYGGGQQGVFGGGTKLTVLRQPKAAPSVTLFPPSSAAAGSEQKLISEEDLNS
conformational changes in CD ([4]; temperature increased up to 35° C.): No significant conformational changes
specificity of binding (GPIIb/IIIa): GPIIb/IIIa-specific and binds to activated platelets exclusively
bleeding time [6]: does not prolong bleeding time
